# T1: NT-4/5 (human, UniProt P34130 P34130:81-210)
# T1 sequence: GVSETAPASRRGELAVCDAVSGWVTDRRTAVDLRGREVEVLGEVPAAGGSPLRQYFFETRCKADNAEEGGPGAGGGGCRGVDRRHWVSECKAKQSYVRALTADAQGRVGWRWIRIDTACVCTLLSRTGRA
# T2: BDNF (human, UniProt P23560 P23560:129-247)
# T2 sequence: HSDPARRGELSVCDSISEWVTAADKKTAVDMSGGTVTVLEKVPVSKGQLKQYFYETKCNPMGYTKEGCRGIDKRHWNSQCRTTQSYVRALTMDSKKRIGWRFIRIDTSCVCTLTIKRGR
# B1: aptamer ID 57(9) (mixed)
# mixed: GGGAUAAAAAUAGAGTUUGATAAACACCUGUAUUAAAACCC
# modifications: as ID 57 (5' cholesterol; 3' idT; dT16,dT21; 2'-F other pyrimidines and a37,a38; 2'-OMe purines except ribo a4,a7,g30) plus PS between 29 and 30
# B2: aptamer ID 26(2) (ssRNA)
# RNA: GGGAGACUCGCCAGAGUUGAAAGAAACCCAAAUAAGUGUGCGCAC
# modifications: 5' and 3' idT; 2'-F all pyrimidines; 2'-OMe purines except ribo g3,g5,g19,a20,a21,a22,a24,a26
# B3: aptamer ID 26(25) (mixed)
# RNA: B2 RNA
# modifications: as 26(19) (5' and 3' idT; 2'-F pyrimidines; 2'-OMe purines except ribo g3,g19,a20,a26) but c12 is dC
# B4: aptamer ID 26(26) (mixed)
# RNA: B2 RNA
# modifications: as 26(19) (5' and 3' idT; 2'-F pyrimidines; 2'-OMe purines except ribo g3,g19,a20,a26) but u17 is dT
# B5: aptamer ID 26(27) (mixed)
# RNA: B2 RNA
# modifications: as 26(19) (5' and 3' idT; 2'-F pyrimidines; 2'-OMe purines except ribo g3,g19,a20,a26) but c29 is dC
# B6: aptamer ID 26(28) (mixed)
# RNA: B2 RNA
# modifications: as 26(19) (5' and 3' idT; 2'-F pyrimidines; 2'-OMe purines except ribo g3,g19,a20,a26) but u33 is dT
# B7: aptamer ID 26(29) (mixed)
# RNA: B2 RNA
# modifications: as 26(19) (5' and 3' idT; 2'-F pyrimidines; 2'-OMe purines except ribo g3,g19,a20,a26) but u37 is dT
# How the values were obtained:
# [1] = target: T3, NGF (nerve growth factor) (human, UniProt P01138 P01138:122-241); experiment: cell_activity; neurite outgrowth, NGF 1.1 nM; TF-1 IC50 7.0 nM; conditions: tags: human NGF; chain copies: 2
# Method: (§1) The neurite outgrowth inhibitory activity of the aptamer obtained in Example 1 was evaluated by using Neuroscreen-1 cell, which is a subclone of PC-12 cells.
# (§2) The cells (2500 cells per well) were cultured for one day in an RPMI-1640 medium containing 2.5% horse serum and 1.25% fetal bovine serum in a 96 well flat-bottom plate coated with collagen type IV. […] Two days later, the cytoplasm and nuclei were stained using Cellomics Neurite Outgrowth Kit (manufactured by Thermo Scientific), and neurite length per cell was measured by Cellomics ArrayScan VTI (manufactured by Thermo Scientific). With the neurite length per cell obtained by the addition of NGF alone as inhibitory activity 0%, and that of the cell obtained by NGF free culture for 2 days as inhibitory activity 100%, the inhibitory activity of the aptamer was calculated from the neurite length per cell obtained by culturing with the addition of NGF and the aptamer in mixture. When the inhibitory activity was 0% or below, ‘0%’ is indicated.
# NT-4/5 = target: T1, NT-4/5; experiment: cell_activity; TF-1 TrkB proliferation; SPR showed very fast dissociation; conditions: tags: R&D Systems; chain copies: 2
# Method: (§3) The physiological inhibitory activity of the aptamers represented by aptamer IDs: 26(2), 52, 63-65 against BDNF, NT-3, NT-4/5 was evaluated by a growth inhibition assay using TF-1 cells.
# (§4) Human receptor genes (TrkB, TrkC, p75) for respective neurotrophic factors were introduced into TF-1 cells (ATCC Number:CRL-2003), which is a human erythroleukemic cell line, by using a retrovirus vector to give cells that highly express these receptors stably. TF-1 cells introduced with TrkB and p75 were used for the evaluation of inhibitory activity against BDNF, TF-1 cells introduced with TrkC and p75 were used for the evaluation against NT-3, and TF-1 cells introduced with TrkB alone were used for the evaluation against NT-4/5. These cells were suspended in an RPMI-1640 medium containing 20% fetal bovine serum, and seeded in a white 96 well flat-bottom plate at 1000 cells (50 μL) per well. […] With the amount of luminescence per well obtained by the addition of BDNF or NT-3 or NT-4/5 alone and culture of the cells for 3 days as inhibitory activity 0%, and that of the cell obtained by culture for 3 days without addition of BDNF or NT3 or NT-4/5 as inhibitory activity 100%, the inhibitory activity of the aptamer was calculated from the amount of luminescence per well obtained by culturing with the addition of BDNF or NT3 or NT-4/5 and the aptamer in mixture. […]
# BDNF = target: T2, BDNF; experiment: cell_activity; TF-1 TrkB/p75 proliferation; SPR showed very fast dissociation; conditions: tags: R&D Systems; chain copies: 2
# Method: as §3, §4
# [2] = target: T3, NGF (nerve growth factor); experiment: cell_activity; neurite outgrowth, NGF 0.38 nM; TF-1 IC50 0.203 nM; conditions: tags: human NGF; chain copies: 2
# Method: as §1, §2
# [3] = target: T3, NGF (nerve growth factor); experiment: cell_activity; neurite outgrowth, NGF 0.38 nM; TF-1 IC50 0.177 nM; conditions: tags: human NGF; chain copies: 2
# Method: as §1, §2
# [4] = target: T3, NGF (nerve growth factor); experiment: cell_activity; neurite outgrowth, NGF 0.38 nM; TF-1 IC50 0.158 nM; conditions: tags: human NGF; chain copies: 2
# Method: as §1, §2
# [5] = target: T3, NGF (nerve growth factor); experiment: cell_activity; neurite outgrowth, NGF 0.38 nM; TF-1 IC50 0.184 nM; conditions: tags: human NGF; chain copies: 2
# Method: as §1, §2
# [6] = target: T3, NGF (nerve growth factor); experiment: cell_activity; neurite outgrowth, NGF 0.38 nM; TF-1 IC50 0.131 nM; conditions: tags: human NGF; chain copies: 2
# Method: as §1, §2
# T3 sequence (P01138 122-241, one chain of several): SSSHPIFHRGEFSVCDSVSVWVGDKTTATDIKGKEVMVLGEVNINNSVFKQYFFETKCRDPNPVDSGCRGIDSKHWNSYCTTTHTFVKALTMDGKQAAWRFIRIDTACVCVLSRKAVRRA
binder,measurement,setting,value
B1,IC50,[1],< 3 nM
B2,IC50,NT-4/5,> 300 nM
same,IC50,BDNF,> 1000 nM
B3,IC50,[2],0.29 nM
B4,IC50,[3],0.285 nM
B5,IC50,[4],0.15 nM
B6,IC50,[5],0.2 nM
B7,IC50,[6],0.138 nM
